Residue numbers refer to the chain shown, from its start. Each block holds one binder with its values, some of them ahead of it.
Legend:
Assay in all cases: SPR, Fab over captured mutant LAG-3-Fc;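 further: fc fusion variants captured on anti-human IgG Fc sensor, Fab injected with association then dissociation phases, KD obtained from Langmuir one-to-one fit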
[1] = target: T1, human LAG-3 domain 1-2 Fc fusion, point mutation #74 P138A (human, UniProt P18627 23-266)
T1 construct: not shown: human IgG1 Fc, AA P101-K330
T1 sequence: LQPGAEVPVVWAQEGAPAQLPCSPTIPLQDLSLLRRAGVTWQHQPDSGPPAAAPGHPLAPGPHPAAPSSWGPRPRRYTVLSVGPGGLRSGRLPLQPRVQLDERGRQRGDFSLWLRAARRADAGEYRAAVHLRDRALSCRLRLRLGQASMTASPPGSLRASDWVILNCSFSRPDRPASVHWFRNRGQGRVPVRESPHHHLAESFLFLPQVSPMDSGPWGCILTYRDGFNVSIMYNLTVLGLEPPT

[2] = target: T2, human LAG-3 domain 1-2 Fc fusion, point mutation #49 G105A (human, UniProt P18627 23-266)
T2 construct: not shown: human IgG1 Fc, AA P101-K330
T2 sequence: T1 sequence with G83A, A116P

[3] = target: T3, human LAG-3 domain 1-2 Fc fusion, point mutation #11 L56A (human, UniProt P18627 23-266)
T3 construct: not shown: human IgG1 Fc, AA P101-K330
T3 sequence: T1 sequence with L34A, A116P

[4] = target: T4, human LAG-3 domain 1-2 Fc fusion, point mutation #2 Q41A (human, UniProt P18627 23-266)
T4 construct: not shown: human IgG1 Fc, AA P101-K330
T4 sequence: T1 sequence with Q19A, A116P

[5] = target: T5, human LAG-3 domain 1-2 Fc fusion, point mutation #31 P84A (human, UniProt P18627 23-266)
T5 construct: not shown: human IgG1 Fc, AA P101-K330
T5 sequence: T1 sequence with P62A, A116P

[6] = target: T6, human LAG-3 domain 1-2 Fc fusion, point mutation #19 D68A (human, UniProt P18627 23-266)
T6 construct: not shown: human IgG1 Fc, AA P101-K330
T6 sequence: T1 sequence with D46A, A116P

[7] = target: T7, human LAG-3 domain 1-2 Fc fusion, point mutation #33 P86A (human, UniProt P18627 23-266)
T7 construct: not shown: human IgG1 Fc, AA P101-K330
T7 sequence: T1 sequence with P64A, A116P

[8] = target: T8, human LAG-3 domain 1-2 Fc fusion, point mutation #41 P94A (human, UniProt P18627 23-266)
T8 construct: not shown: human IgG1 Fc, AA P101-K330
T8 sequence: T1 sequence with P72A, A116P

[9] = target: T9, human LAG-3 domain 1-2 Fc fusion, point mutation #27 L80A (human, UniProt P18627 23-266)
T9 construct: not shown: human IgG1 Fc, AA P101-K330
T9 sequence: T1 sequence with L58A, A116P

binding result [1]: no binding (tested: 300 nM) | KD mutant/KD wild type [2]: 0.4 fold | KD mutant/KD wild type [3]: 0.7 fold | binding result [4]: no binding (tested: 300 nM) | KD mutant/KD wild type [5]: 0.9 fold | binding result [6]: no binding (tested: 300 nM) | KD mutant/KD wild type [7]: 0.7 fold | KD mutant/KD wild type [8]: 0.6 fold | KD mutant/KD wild type [9]: 0.6 fold
B1: Fab fragment of antibody 15572 (Fab, V domains shown, not shown: a dimerising Fc or GST)
VH: QLQLQESGPGLVKPSETLSLTCTVSGDSISSSSYYWGWIRQPPGKGLEWIGSIFYSGNTYYNPSLKSRVTISVDTSKNQFSLKLSSVTAADTAVYYCAREDDFLTDYYGAFDIWGQGTMVTVSS
VL: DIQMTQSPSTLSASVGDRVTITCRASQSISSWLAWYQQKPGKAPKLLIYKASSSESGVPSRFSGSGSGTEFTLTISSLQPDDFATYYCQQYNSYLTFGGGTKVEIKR
notes: monomeric Fab made by GingisKHAN digestion of the IgG1

KD mutant/KD wild type [1]: 2.7 fold | KD mutant/KD wild type [2]: 1.1 fold | KD mutant/KD wild type [3]: 1.2 fold | KD mutant/KD wild type [4]: 3.4 fold | KD mutant/KD wild type [5]: 0.5 fold | KD mutant/KD wild type [6]: 3.4 fold | KD mutant/KD wild type [7]: 6.1 fold | KD mutant/KD wild type [8]: 0.8 fold | KD mutant/KD wild type [9]: 0.6 fold
B2: Fab fragment of antibody 15532 (Fab, V domains shown, not shown: a dimerising Fc or GST)
VH: QVQLQQWGAGLLRPSETLSLTCAVYGESFSGYYWNWIRQPPGKGLEWIGEINHSGSTNYNPSLKSRVTISVDTSKTQFSLKLSSVTAADTAVYYCARGWDLLDWNDYWNEYWGQGTLVTVSS
VL: EIVLTQSPATLSLSPGERATLSCRASQSVSSYLAWYQQKPGQAPRLLIYDASNRATGIPARFSGSGSGTDFTLTISSLEPEDFAVYYCQQRSNWPLTFGGGTKVEIKR
notes: as for B1

binding result [1]: no binding (tested: 300 nM) | KD mutant/KD wild type [2]: 0.4 fold | KD mutant/KD wild type [3]: 0.3 fold | binding result [4]: no binding (tested: 300 nM) | KD mutant/KD wild type [5]: 1.1 fold | binding result [6]: no binding (tested: 300 nM) | KD mutant/KD wild type [7]: 0.6 fold | binding result [8]: no binding (tested: 300 nM) | KD mutant/KD wild type [9]: 0.5 fold
B3: Fab fragment of antibody 15431 (Fab, V domains shown, not shown: a dimerising Fc or GST)
VH: QVQLQQSGPGLVKPSQTLSLTCAISGDSVSSNSAAWNWIRQSPSRGLEWLGRTYYRSKWYNDYAVSVKSRITINPDTSKNQFSLQLNSVTPEDTAVYYCARDDDWNDFDYWGQGTLVTVSS
VL: B2 VL
notes: as for B1

KD mutant/KD wild type [1]: 0.7 fold | KD mutant/KD wild type [2]: 1.6 fold | KD mutant/KD wild type [3]: 0.7 fold | KD mutant/KD wild type [4]: 0.7 fold | KD mutant/KD wild type [5]: 1 fold | KD mutant/KD wild type [6]: 0.6 fold | KD mutant/KD wild type [7]: 0.7 fold | KD mutant/KD wild type [8]: 0.7 fold | KD mutant/KD wild type [9]: 0.8 fold
B4: Fab fragment of antibody 15011 (Fab, V domains shown, not shown: a dimerising Fc or GST)
VH: EVQLLESGGGLVQPGGSLRLSCAASGFDFRSYAMMWVRQAPGKGLEWVGGINGEVGGSNTYYAPAVKGRATISRDNSKNTLYLQMNSLRAEDTAVYYCVKGAGACGICNDDIDAWGQGTLVTVSS
VL: SYELTQDPAVSVALGQTVRITCSGAGSYAGSYYYGWHQQKPGQAPVTVIYDNDKRPSNIPDRFSGSSSGNTASLTITGAQAEDEADYYCGSTNDNDDGGLFGSGTKVTVLG
notes: as for B1
